A word on the stoichiometry N: it is the number of molecules, sites or subunits per partner or assembly.

These results are taken from paper doi:10.1101/607101 (bioRxiv, 2019).

The data set concerns the molecule itself. Description: crystal structure.

B1: Kitasatospora setae enoyl-CoA carboxylase/reductase (ECR), wild type (enzyme)
chain: MQEILDAILSGDAASADYAALALPESYRAVTLHKGEERMFDGLASRDKDPRKSLHLDDVPLPELGPGEALVAVMASSVNYNTVWSSIFEPVSTFGFLERYGRLSPLTARHDLPYHVLGSDLAGVVLRTGAGVNAWKPGDEVVAHCLSVELESPDGHNDTMMDPEQRIWGFETNFGGLAQLALVKTNQLLPKPKHLTWEEAASPGLVNSTAYRQLVSRNGAGLKQGDNVLIWGASGGLGSYATQYALAGGATPICVVSSPRKADICRAMGAEAIIDRSAEGYRFWKDEHHQDPREWKRLGGKIREFTGGEDVDIVFEHPGRETFGASVYVTRKGGTIVTCASTSGYMHQYDNRYLWMSLKRIVGSHFANYREAFEANRLVAKGKIHPTLSKVYALEETGQAALDVHHNKHQGKVGVLCLAPREGLGVTDPELRSKHLTKINAFRNV
Consider B1, for which the “stoichiometry N” value came out at 4.
